Experimental data published in US20230227568A1 (Pieris, published 2023).

B1: bispecific multimeric protein SEQ ID NO: 55 (designed binder)
chain: QDSTSDLIPAPPLSKVPLQQNFQDNQFQGKWYVVGRAGNVGLREDKDPPKMWATIYELKEDKSYDVTNVRFARKKCTYSIGTFVPGSQPGEFTLGQIKSEPGGTANLVRVVSTNYNQHAMVFFKEVYQNREIFFIILYGRTKELTSELKENFIRFSKSLGLPENHIVFPVPIDQCIDGGGGGSGGGGSGGGGSGVRLWATRQAMLGQVHEVPEGWLIFVAEQEELYVRVQNGFRKVQLEARTPLGGGGSGGGGSGGGGSQDSTSDLIPAPPLSKVPLQQNFQDNQFHGKWYVVGQAGNIRLREDKDPIKMMATIYELKEDKSYDVTMVKFDDKKCMYDIWTFVPGSQPGEFTLGKIKSFPGHTSSLVRVVSTNYNQHAMVFFKFVFQNREEFYITLYGRTKELTSELKENFIRFSKSLGLPENHIVFPVPIDQCIDGGGSGGAPEQKLISEEDLGSHHHHHHHHHH
B2: SEQ ID NO: 8 (designed binder)
lipocalin mutein: QDSTSDLIPAPPLSKVPLQQNFQDNQFHGKWYVVGLAGNAILREDKDPQKMYATIYELKEDKSYNVTSVLFRKKKCDYWIRTFVPGSQPGEFTLGNIKSYPGLTSYLVRVVSTNYNQHAMVFFKKVSQNREYFKITLYGRTKELTSELKENFIRFSKSLGLPENHIVFPVPIDQCIDG
B3: multimeric protein SEQ ID NO: 52 (designed binder)
chain: QDSTSDLIPAPPLSKVPLQQNFQDNQFHGKWYVVGQAGNIRLREDKDPIKMMATIYELKEDKSYDVTMVKFDDKKCMYDIWTFVPGSQPGEFTLGKIKSFPGHTSSLVRVVSTNYNQHAMVFFKFVFQNREEFYITLYGRTKELTSELKENFIRFSKSLGLPENHIVFPVPIDQCIDGGGGGSGGGGSGGGGSQDSTSDLIPAPPLSKVPLQQNFQDNQFHGKWYVVGQAGNIRLREDKDPIKMMATIYELKEDKSYDVTMVKFDDKKCMYDIWTFVPGSQPGEFTLGKIKSFPGHTSSLVRVVSTNYNQHAMVFFKFVFQNREEFYITLYGRTKELTSELKENFIRFSKSLGLPENHIVFPVPIDQCIDGGGGGSGGGGSGGGGSGVRLWATRQAMLGQVHEVPEGWLIFVAEQEELYVRVQNGFRKVQLEARTPLGGSGGAPEQKLISEEDLGSHHHHHHHHHH

Assays:
human 4-1BB on cells [1] = biological target: T1, human 4-1BB on cells (human, UniProt Q07011 24-255); assay: cell-based or functional assay
[2] = biological target: T2, human GPC3 on HepG2 cells (human, UniProt P51654 25-554); assay: flow cytometry, HepG2 cells
T2 construct: whole, on cells; Endogenous GPC3 of the tumor cell line; also called GPC3-positive tumor cell line HepG2; human GPC3-expressing HepG2 cells
Protocol: (§1) GPC3-positive tumor cell line HepG2 was cultured in Dulbecco's Modified Eagle's Medium ([…], Pan Biotech) supplemented with 10% Fetal Calf Serum (Sigma-Aldrich) and in cell culture flasks according to manufacturer's instruction (37° C., 5% CO₂ atmosphere).
(§2) 5×10⁴ cells per well were incubated for 1 h in ice-cold PBS containing 5% fetal calf serum (PBS-FCS). A dilution series of the tested multimeric proteins (SEQ ID NOs: 38-44 and 46-55), the 4-1BB-targeting lipocalin mutein as included in the multimeric proteins (SEQ ID NO: 64) or the GPC3-targeting lipocalin SEQ ID NO: 90 were added to the cells and incubated for 1 h on ice. Cells were washed twice with PBS and then incubated with a rabbit anti-NGAL or a goat anti-human IgG labeled with fluorescent dye Alexa 488 for 30 min on ice. Human IgG4 isotype (SEQ ID NOs: 29 and 30) and lipocalin mutein SEQ ID NO: 8 were tested as a negative control. Cells were subsequently washed and analyzed using iQue Flow cytometer (Intellicyte Screener). Mean geometric fluorescent signals were plotted and fitted with Graphpad software using nonlinear regression (shared bottom, four parameters, variable slope).

human 4-1BB on cells [3] = biological target: T1, human 4-1BB on cells; assay: flow cytometry, Flp-In-CHO::hu4-1BB cells
Method in brief: (§3)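 Flp-In CHO cells stably expressing human or cynomolgus 4-1BB (mock-transfected control), 5×10⁴/well, incubated 1 h on ice with dilution series of test proteins. Binding detected with rabbit anti-NGAL or Alexa 488 anti-human IgG (30 min, ice); geometric mean fluorescence fitted by four-parameter nonlinear regression.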

[4] = biological target: T3, cynomolgus 4-1BB on CHO cells (cynomolgus, UniProt A9YYE7 24-254); assay: flow cytometry, Flp-In-CHO::cyno4-1BB cells
T3 construct: also called Flp-In-CHO::cyno4-1BB; cynomolgus 4-1BB-expressing CHO cells
Method in brief: as §3

[5] = biological target: T4, huGPC3-His (human GPC3 with C-terminal polyhistidine tag, R&D Systems) (human, UniProt P51654 25-559, limits assumed); assay: ELISA, huGPC3-His coated, detection anti-NGAL-HRP
T4 construct: Bought; not shown: C-terminal polyhistidine tag
Protocol: (§4) Recombinant hu4-1BB-His (human 4-1BB with a C-terminal polyhistidine tag, R&D Systems) at the concentration of 1 μg/mL in PBS was coated overnight on microtiter plates at 4° C. After washing with PBS-0.05% T (PBS supplemented with 0.05% (v/v) Tween 20), the plates were blocked with 2% BSA (w/v) in PBS-0.1% T (PBS supplemented with 0.1% (v/v) Tween 20) for 1 h at room temperature. After washing with 100 μL PBS-0.05% T five times, exemplary multimeric proteins (SEQ ID NOs: 38-44 and 46-53) or 4-1BB-specific lipocalin mutein as included in the multimeric protein (SEQ ID NO: 64) at different concentrations, ranging from 100 to 0.002 nM, were added to the wells and incubated for 1 h at room temperature, followed by another wash step. Bound molecules under study were detected by incubation with 1:1000 diluted anti-NGAL-HRP in PBS-0.1% T-2% BSA. After an additional wash step, fluorogenic HRP substrate (QuantaBlu, Thermo) was added to each well and the fluorescence intensity was detected using a fluorescence microplate reader.
The same ELISA setup was also employed to determine the binding potency of exemplary bispecific multimeric proteins (SEQ ID NO: 54 and SEQ ID NO: 55) to GPC3, where huGPC3-His (human GPC3 with C-terminal polyhistidine tag, R&D Systems) was instead coated on a microtiter plate. The testing agents were similarly titrated and bound agents detected.

hu4-1BB-Fc (R&D Systems) = biological target: T5, hu4-1BB-Fc (R&D Systems) (human, UniProt Q07011 24-186); assay: SPR (Biacore 8K), hu4-1BB-Fc captured by anti-human IgG Fc; apparent value, 1:1 fit
T5 construct: Bought; also called human 4-1BB; not shown: human IgG Fc of the bought fusion
Method in brief: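 hu4-1BB-Fc at 0.3 μg/mL captured for 180 s on amine-coupled anti-human IgG Fc (CM5 chip). Analyte contact 180 s, dissociation 1200 s or 3000 s, 30 μL/min, 25° C. Double-referenced sensorgrams fitted to a 1:1 binding model.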

[6] = biological target: T4, huGPC3-His (human GPC3 with C-terminal …); assay: dual-binding ELISA, huGPC3-His coated, detection with biotinylated hu4-1BB-His and Extravidin-HRP
Protocol: Recombinant huGPC3-His (human GPC3 with C-terminal polyhistidine tag, R&D Systems) at the concentration of 1 μg/mL in PBS was coated overnight on microtiter plates at 4° C. After washing with PBS-0.05% T (PBS supplemented with 0.05% (v/v) Tween 20), the plates were blocked with 2% BSA (w/v) in PBS-0.1% T (PBS supplemented with 0.1% (v/v) Tween 20) for 1 h at room temperature. After washing with 100 μL PBS-0.05% T five times, exemplary multimeric proteins (SEQ ID NOs: 54 and 55) at different concentrations, ranging from 100 to 0.002 nM, were added to the wells and incubated for 1 h at room temperature, followed by another wash step. Bound molecules under study were detected by incubation with 1 μg/mL recombinant hu4-1BB-His (biotinylated human 4-1BB with C-terminal polyhistidine tag, Sino Biological) in PBS-0.1% T-2% BSA for 1 h. This step was followed by a further wash step and incubation with 1:5000 diluted Extravidin-HRP in PBS-0.1% T-2% BSA. After an additional wash step, fluorogenic HRP substrate (QuantaBlu, Thermo) was added to each well and the fluorescence intensity was detected using a fluorescence microplate reader.

[7] = biological target: T6, recombinant hu4-1BB-His (human 4-1BB with a C-terminal polyhistidine tag, R&D Systems) (human, UniProt Q07011 24-186); assay: ELISA, hu4-1BB-His coated on the plate, bound agent detected with anti-NGAL-HRP
T6 construct: Bought; not shown: C-terminal polyhistidine tag
Protocol: C-terminal His-tagged 4-1BB or GPC3 was coated on a microtiter plate, and the tested agents were titrated starting with the highest concentration of 100 nM. Bound agents under study were detected via anti-NGAL-HRP. The data was fit with a 1:1 binding model with the EC₅₀ value and the maximum signal as free parameters, and a slope that was fixed to one.
as §4

[8] = biological target: T2, human GPC3 on HepG2 cells; assay: flow cytometry on HepG2 cells (human GPC3), anti-NGAL detection, GeoMean BL1-H [Cont'd) C]
Protocol: as §1, §2

human 4-1BB on cells [9] = biological target: T1, human 4-1BB on cells; assay: flow cytometry on Flp-In-CHO::huCD137 (human 4-1BB) cells, anti-NGAL detection, GeoMean BL1-H
Protocol: (§5) CHO cells were stably transfected with human 4-1BB, cynomolgus 4-1BB, or a mock control using the Flp-In system (Life Technologies) according to the manufacturer's instructions. Transfected CHO cells were maintained in Ham's F12 medium (Life Technologies) supplemented with 10% Fetal Calf Serum (Biochrom) and 500 μg/ml Hygromycin B (Roth). Cells were cultured in cell culture flasks according to manufacturer's instruction (37° C., 5% CO₂ atmosphere).
as §2

human PD-L1 on CHO cells = biological target: T7, human PD-L1 on CHO cells (human, UniProt Q9NZQ7 19-290); assay: flow cytometry on CHO cells stably transfected with human PD-L1, anti-NGAL detection, GeoMean BL1-H
T7 construct: whole, on cells; Stably transfected CHO cells; also called Flp-In-CHO::huPD-L1; human PD-L1-expressing CHO cells
Protocol: as §2
(§6) Target-specific binding of hexavalent trimeric proteins to human 4-1BB-, OX40- or PD-L1-expressing cells was assessed by flow cytometry as described in Example 5, using CHO cells stably transfected with human 4-1BB, human OX40 or human PD-L1 (Flp-In system; Life Technologies).

[10] = biological target: T3, cynomolgus 4-1BB on CHO cells; assay: flow cytometry on Flp-In-CHO::cyCD137 (cynomolgus 4-1BB) cells, anti-NGAL detection, GeoMean BL1-H [Cont'd) B]
Protocol: as §5, §2

[11] = biological target: T6, recombinant hu4-1BB-His (human 4-1BB …); assay: ELISA, hu4-1BB-His coated, detection anti-NGAL-HRP
Method in brief: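 Plates coated with hu4-1BB-His (1 μg/mL, overnight, 4° C) and blocked with 2% BSA; test proteins at 100 to 0.002 nM bound 1 h at room temperature. Detection by anti-NGAL-HRP with fluorogenic substrate; EC₅₀ from 1:1 sigmoidal fit, slope fixed to one.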

human 4-1BB on cells [12] = biological target: T1, human 4-1BB on cells; assay: flow cytometry on CHO cells stably transfected with human 4-1BB, anti-NGAL detection, GeoMean BL1-H
Protocol: as §2, §6

T1 sequence (Q07011 24-255): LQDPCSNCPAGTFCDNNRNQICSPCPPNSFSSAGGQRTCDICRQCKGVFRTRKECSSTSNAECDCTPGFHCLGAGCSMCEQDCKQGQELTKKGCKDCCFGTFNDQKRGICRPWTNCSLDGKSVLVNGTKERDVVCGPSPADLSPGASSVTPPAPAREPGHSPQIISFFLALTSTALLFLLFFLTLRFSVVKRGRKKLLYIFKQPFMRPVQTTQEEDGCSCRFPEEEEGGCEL
T3 sequence (A9YYE7 entry or part of it limits assumed): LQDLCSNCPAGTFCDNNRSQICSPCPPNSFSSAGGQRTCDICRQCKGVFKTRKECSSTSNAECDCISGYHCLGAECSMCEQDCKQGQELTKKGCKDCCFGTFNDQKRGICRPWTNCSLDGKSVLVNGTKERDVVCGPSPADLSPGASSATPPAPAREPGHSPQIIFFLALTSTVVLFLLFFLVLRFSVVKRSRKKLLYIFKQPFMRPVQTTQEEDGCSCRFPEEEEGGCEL
T4 sequence (P51654 25-559 limits assumed): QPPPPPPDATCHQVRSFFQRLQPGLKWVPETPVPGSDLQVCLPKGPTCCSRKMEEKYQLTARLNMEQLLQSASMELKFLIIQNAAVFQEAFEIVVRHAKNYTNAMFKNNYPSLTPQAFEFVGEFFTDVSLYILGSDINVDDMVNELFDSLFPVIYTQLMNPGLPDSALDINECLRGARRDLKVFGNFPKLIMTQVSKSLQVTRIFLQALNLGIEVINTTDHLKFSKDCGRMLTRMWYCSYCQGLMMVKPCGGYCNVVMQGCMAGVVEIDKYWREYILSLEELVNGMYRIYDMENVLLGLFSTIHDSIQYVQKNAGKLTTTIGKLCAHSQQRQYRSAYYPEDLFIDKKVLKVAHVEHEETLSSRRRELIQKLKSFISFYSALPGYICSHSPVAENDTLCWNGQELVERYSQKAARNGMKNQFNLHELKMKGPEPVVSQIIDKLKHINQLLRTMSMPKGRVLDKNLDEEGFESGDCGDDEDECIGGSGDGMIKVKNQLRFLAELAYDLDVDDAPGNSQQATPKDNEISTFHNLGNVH
T2 sequence (P51654 25-554 limits assumed): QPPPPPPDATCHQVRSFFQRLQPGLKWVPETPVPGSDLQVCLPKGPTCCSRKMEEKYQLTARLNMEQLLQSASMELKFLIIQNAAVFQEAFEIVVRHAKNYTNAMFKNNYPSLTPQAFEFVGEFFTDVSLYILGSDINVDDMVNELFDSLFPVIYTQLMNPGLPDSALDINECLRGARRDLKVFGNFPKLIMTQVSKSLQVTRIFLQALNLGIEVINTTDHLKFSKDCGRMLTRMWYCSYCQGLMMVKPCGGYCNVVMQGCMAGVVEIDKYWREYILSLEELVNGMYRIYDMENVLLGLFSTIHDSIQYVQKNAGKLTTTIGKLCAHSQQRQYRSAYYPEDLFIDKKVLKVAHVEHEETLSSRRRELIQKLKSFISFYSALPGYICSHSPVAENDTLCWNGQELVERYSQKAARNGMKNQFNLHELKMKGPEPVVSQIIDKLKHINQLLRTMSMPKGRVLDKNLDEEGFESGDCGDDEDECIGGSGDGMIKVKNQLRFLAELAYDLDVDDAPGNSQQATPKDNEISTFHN
T7 sequence (Q9NZQ7 19-290): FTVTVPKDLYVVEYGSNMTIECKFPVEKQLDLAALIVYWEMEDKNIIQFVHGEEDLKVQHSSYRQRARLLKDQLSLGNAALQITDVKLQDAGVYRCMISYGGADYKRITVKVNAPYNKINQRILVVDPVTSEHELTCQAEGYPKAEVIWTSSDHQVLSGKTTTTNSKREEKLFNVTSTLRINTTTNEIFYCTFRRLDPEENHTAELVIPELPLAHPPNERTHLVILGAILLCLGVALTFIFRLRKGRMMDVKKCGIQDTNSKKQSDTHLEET

Row | Binder | EC50 [nM], 4-1BB bioassay (NFκB-luc2/4-1BB Jurkat luminescence), with HepG2 cells (human 4-1BB on cells [1]) | EC50 [2] | EC50 (human 4-1BB on cells [3]) | EC50 [4] | EC50 [5] | Kd (hu4-1BB-Fc (R&D Systems)) | koff (hu4-1BB-Fc (R&D Systems)) | kon (hu4-1BB-Fc (R&D Systems)) | EC50 [6] | binding result [7] | binding result [8] | binding result (human 4-1BB on cells [9]) | binding result (human PD-L1 on CHO cells) | binding result [10] | EC50 [11] | EC50 (read off the curve) (human 4-1BB on cells [12])
1 | B1 | 0.69 nM | 2.98 nM | 4.08 nM | 6.62 nM | 0.1 nM | 0.71 nM | 5.99e-05 s⁻¹ | 84000 M⁻¹ s⁻¹ | 1.3 nM | – | – | – | – | – | – | –
2 | B2 | – | – | – | – | – | – | – | – | – | no binding (tested: 100 nM) | no binding (tested: about 200 nM) | no binding (tested: about 200 nM) | no binding (tested: about 7 nM) | no binding (tested: about 200 nM) | – | –
3 | B3 | 1 nM | – | 1.5 nM | 3.36 nM | – | 0.24 nM | 2.19e-05 s⁻¹ | 90400 M⁻¹ s⁻¹ | – | – | – | – | – | – | 0.12 nM | ~2 nM
